Results from article PMC3034019 (The EMBO Journal, 2011).

B1: EVH2 domain of Dictyostelium discoideum VASP (DdEVH2) (domain or fragment)
chain: GRNALLGSIENFSKGGLKKTVTVDKSAGVPTKTTPSANSAASNAGSEPSSGGSTPAPAPKSSGGGGGGDLMAEVMAKRAKMKAAASQPKEESSAPTPAPTPAPTPAPTPSSTSFKPPQSFSKPATKTAAANKPPSPSLSAPLPSTVANEDLQSLKEEILTEVRKEIQKAKDEILEAIRASQH

What was measured:
[1] = target: Oregon-Green-labelled actin monomers (OG-actin) (UniProt P68135 1-377, Oregon-Green (OG) label, position not stated); assay: other fluorescence titration
[2] = target: Oregon-Green-labelled actin monomers (OG-actin) (UniProt P68135 1-377, Oregon-Green (OG) label, position not stated); assay: stopped-flow fluorescence kinetics

Binder | Kd [1] [nM] | kon [2] [M⁻¹ s⁻¹]
GRNALLSDISKGKKLKKTVT [WIP-WH2-peptide (WH2 core motif of WASP-interacting protein)] | 840 | –
GRNALLGSIENFSKGGLKKTVT [DdGAB peptide (G-actin-binding site of Dictyostelium discoideum VASP)] | 630 | –
B1 | – | 5.3e+07
GLAAAIAGAKLRKVSK [hGAB peptide (G-actin-binding site of human VASP)] | 10300 | –
